Laboratory results as given in publication PMC13343975, “A connection between two ancient and essential cellular processes, iron-sulfur protein biogenesis and fatty acid synthesis, in Escherichia coli” (mBio, 2026).

Key:
6His-IscS [1] = biological target: T1, 6His-IscS (E. coli, UniProt P0A6B7 1-404)
T1 construct: IscS cysteine desulfurase, E. coli; IscS-coding region (primers OSD56/OSD57, start codon to stop codon, 1,248 bp fragment) between EcoRI and XhoI of pET6His-TEV; The vector's name tells a TEV site between the 6His tag and the protein; no cleavage is told; also called pET-6His-TEV-iscS; source: E. coli MG1655(DE3), purified (Ni-nitrilotriacetic acid agarose); not shown: 6His, N-terminal, kept

6His-IscS [2] = biological target: T1, 6His-IscS; experiment: native gel or EMSA; 6His-IscS 15 µM with 6His-ACP or variant 30 µM, 20 min at 37°C in 100 mM Hepes, 150 mM NaCl; non-denaturing 12% PAGE, Coomassie Blue; conditions: both partners purified

T1 sequence (P0A6B7 whole entry, the tested form may be a part): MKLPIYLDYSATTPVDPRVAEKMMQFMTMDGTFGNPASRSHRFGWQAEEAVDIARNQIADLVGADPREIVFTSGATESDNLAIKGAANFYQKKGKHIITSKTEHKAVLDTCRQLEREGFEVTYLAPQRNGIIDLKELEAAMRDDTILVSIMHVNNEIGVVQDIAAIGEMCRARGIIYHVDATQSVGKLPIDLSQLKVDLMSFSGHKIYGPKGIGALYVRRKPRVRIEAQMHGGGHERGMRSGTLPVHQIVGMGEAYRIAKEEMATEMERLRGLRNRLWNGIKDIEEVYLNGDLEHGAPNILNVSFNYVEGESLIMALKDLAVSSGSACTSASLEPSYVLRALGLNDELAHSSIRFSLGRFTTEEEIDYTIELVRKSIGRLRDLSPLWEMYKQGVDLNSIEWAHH

Row | Molecule | cysteine desulfurase activity of IscS (methylene blue assay), relative to IscS alone (6His-IscS [1]) [fold] | binding result (6His-IscS [2])
1 | acylated 6His-ACP (from UniProt P0A6A8 1-78) (natural protein) | 3 | 
2 | 6His-ACP (natural protein, E. coli, UniProt P0A6A8 1-78, looked up, preparation expected to comprise a mixture of apo-ACP, holo-ACP (phosphopantetheine-bound ACP, on Ser36) and a minor fraction of acylated ACP, acyl carrier protein (ACP), E. coli; ACP-coding region (primers OSD146/OSD147, start codon to stop codon, 263 bp fragment) between EcoRI and XhoI of pET6His-TEV; The vector's name tells a TEV site between the 6His tag and the protein; no cleavage is told; also called ACPWT; wild-type ACP; source: E. coli MG1655(DE3), 10 mM pantothenate in the culture, purified (Ni-nitrilotriacetic acid agarose); …) MSTIEERVKKIIGEQLGVKQEEVTNNASFVEDLGADSLDTVELVMALEEEFDTEIPDEEAEKITTVQAAIDYINGHQA |  | binds
